Data reported in patent US20260193348A1 (ANTENGENE BIOLOGICS, published 2026).
Substitutions are numbered along the chain they refer to. Numbers in names are those of the source. Blank lines part the entries; values can stand above or below the binder they belong to.

What was measured:
[1] = biological target: T1, GPRC5D on multiple myeloma cells (human, UniProt Q9NZD1 1-345); test: FACS on multiple myeloma cell lines
T1 construct: whole, on cells; Endogenous GPRC5D on multiple myeloma cell lines; also called G-protein coupled receptor family C group 5 member D; MM.1S, MOLP-8, L363, RPMI8226 cells
T1 sequence (Q9NZD1 whole entry): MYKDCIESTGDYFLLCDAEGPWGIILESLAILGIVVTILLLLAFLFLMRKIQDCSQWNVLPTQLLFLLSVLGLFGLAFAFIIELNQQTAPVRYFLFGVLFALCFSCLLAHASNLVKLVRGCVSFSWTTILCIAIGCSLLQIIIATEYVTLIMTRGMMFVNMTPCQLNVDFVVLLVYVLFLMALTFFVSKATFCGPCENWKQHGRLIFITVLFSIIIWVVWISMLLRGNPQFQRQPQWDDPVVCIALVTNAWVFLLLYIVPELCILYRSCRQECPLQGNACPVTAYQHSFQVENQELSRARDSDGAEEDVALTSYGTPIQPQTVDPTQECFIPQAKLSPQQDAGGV

[2] = biological target: T2, CD3 on T cells / Jurkat cells (human, UniProt P07766 23-207; P04234 22-171; P09693 23-182); test: FACS on Jurkat cells
T2 construct: whole, on cells; Native CD3 complex on CD3+ T cells isolated from normal donors or on Jurkat cells; also called human CD3; CD3+ T cells
T2 sequence (P07766 23-207, chain 1 of 3): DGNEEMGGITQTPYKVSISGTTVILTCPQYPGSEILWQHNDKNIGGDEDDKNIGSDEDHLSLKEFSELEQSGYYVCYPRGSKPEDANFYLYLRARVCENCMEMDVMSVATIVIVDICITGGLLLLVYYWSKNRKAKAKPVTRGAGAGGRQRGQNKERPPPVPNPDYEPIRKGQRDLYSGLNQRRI
T2 sequence (P04234 22-171, chain 2 of 3): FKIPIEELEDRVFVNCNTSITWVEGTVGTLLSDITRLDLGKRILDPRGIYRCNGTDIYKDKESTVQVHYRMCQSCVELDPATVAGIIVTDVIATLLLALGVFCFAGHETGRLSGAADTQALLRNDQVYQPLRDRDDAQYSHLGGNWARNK
T2 sequence (P09693 23-182, chain 3 of 3): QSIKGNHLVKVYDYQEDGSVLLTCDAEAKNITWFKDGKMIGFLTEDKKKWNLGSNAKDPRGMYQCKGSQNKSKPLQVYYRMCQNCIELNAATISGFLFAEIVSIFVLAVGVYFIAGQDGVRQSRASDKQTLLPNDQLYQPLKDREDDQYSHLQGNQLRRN

[3] = biological target: T1, GPRC5D on multiple myeloma cells; test: FACS on MM.1S cells
[4] = biological target: T2, CD3 on T cells / Jurkat cells; test: FACS on CD3+ T cells isolated from normal donors

binding result [1]: binds
binding result [2]: binds
B1: Bis-40E9-L2H3-Y101F.H (bispecific antibody)
VH: EVQLVQSGAEVKKPGASVKVSCKASGYTFTSYVIHWVRQAPGQGLEWMGYFNPYNDGTKYNEEFKGRVTLTSDKSTSTAYMELRSLRSDDTAVYYCARGGVRRYFDVWGQGTTVTVSS
VL: DIQMTQSPSSLSASVGDRVTITCRASQDIGSNLNWLQQKPGKAIKRLIYATFGLDSGVPSRFSGSRSGTDFTLTISSLQPEDFATYYCQQYASFPYTFGGGTKVEIK
scFv: EVQLVQSGAEVKKPGSSVKVSCKASGYTFSSYVIHWVRQAPGQCLEWMGYINPYNDVIKYNEKFKGRVTLTSDKSTSTAYMELSSLRSEDTAVYYCARDSFYSYDGFAYWGQGTLVTVSSGGGGSGGGGSGGGGSGGGGSEIVLTQSPDFQSVTPKEKVTITCSASSSVSYMHWYQQKPDQSPKRLIYDTSKLASGVPSRFSGSGSGTDFTLTINSLEAEDAATYYCQQWSSNPPTFGCGTKVEIK
notes: L234A/L235A

binding result [3]: binds
binding result [4]: binds
B4: ATG-Bis-40E9 (bispecific antibody)
VH: EVQLQQSGPELVKPGASVKMSCKASGYTFTSYVIHWVKQKTGQGLEWIGYFNPYNDGTKYNEEFKGKATLTSDKSSNTAYMELNSLTSDDSAVYFCARGGVRRYFDVWGAGTTVTVSS
VL: DIQMTQSPSSLSASLGERVSLTCRASQDIGSNLNWLQQEPDGTIKRLIYATFGLDSGVPKRFSGSRSGSDYSLTISSLESEDFVDYYCQQYASFPYTFGGGTKLEIK
scFv: EVQLQLSGPELVKPGASVKMSCKASGYTFSSYVIHWVKQKPGQGLEWIGYINPYNDVIKYNEKFKGKATLTSDKSSSTAYMELSSLTSEDSAVYYCARDSYYSYDGFAYWGQGTLVTVSAGGGGSGGGGSGGGGSGGGGSQIVLTQSPAIMSASPGEKVTMTCSASSSVSYMHWYQQKSGTSPKRWIYDTSKLASGVPARFSGSGSGTSYSLTISSMEAEDAATYYCQQWSSNPPTFGGGTKVEIK
notes: L234A/L235A; also called chimeric 2+1 bispecific antibody; parental antibody

Second part, the binder before the results:

B2: Bis-40E9-L2H3-Y54G.H (bispecific antibody)
VH: B1 VH
VL: B1 VL
scFv: B1 scFv with Y54G, F101Y
notes: L234A/L235A
binding result [1]: binds
binding result [2]: binds

B3: Bis-40E9-L2H3-D105R.H (bispecific antibody)
VH: B1 VH
VL: B1 VL
scFv: B1 scFv with F101Y, D105R
notes: L234A/L235A
binding result [1]: binds
binding result [2]: binds
